Legend:
[1] = In vivo assay of yeast cells expressing recombinant oxygenases, radio-HPLC, substrate taxadienyl acetate; format: cell-based, Saccharomyces cerevisiae; conditions: for product identified HPLC peak: assayed with Taxadienyl Ac, graded symbols, key not given
Method: (§1) Transformed yeast cells that functionally express a recombinant cytochrome P450 gene from Taxus (by CO-difference spectrum) were tested in vivo for their ability to oxygenate (hydroxylate or epoxidize) taxoid substrates fed exogenously, thereby eliminating the need for microsome isolation for such a preliminary in vitro assay. […] The ether extracts resulting from these incubations were analyzed by radio-HPLC. Several clones converted the taxadienyl-5α-yl acetate substrate to a more polar product.
(§2) Isolated transformants for each full-length cytochrome P450 clone shown to express a functional enzyme by CO-difference spectrum (ten clones) were grown to stationary phase in 2 mL SGI medium at 30° C. and used to inoculate a 10-mL expression culture (in YPL medium). Approximately 8 hours after induction, cells were harvested by centrifugation (10 minutes at 1500 rpm), and the pellet was resuspended in 2 mL of fresh YPL medium.
(§3) To eliminate additional complication and uncertainty associated with microsome isolations for in vitro assays, 10^6 dpm of [20-^3H3]taxa-4(5),11(12)-diene (16 Ci/mol) or [20-^3H2]taxa-4(20),11(12)-diene-5-α-ol (4.0 Ci/mol), or other taxoid substrate were added directly to the cell suspension to assay conversion in vivo. After 12 hours of incubation at 30° C. with agitation (250 rpm), the mixture was treated for 15 minutes in a sonication bath and extracted 3 times with 2 mL diethyl ether to insure isolation of the biosynthetic products. These ether extracts, containing residual substrate and derived product(s), were concentrated to dryness, resuspended in 200 μL of CH3CN, and filtered. These samples were analyzed by radio-HPLC (Hefner et al., Chemistry and Biology 3:479–489, 1996) using a 4.6 mm i.d.×250 mm column of Econosil C18, 5 μ (Alltech, Deerfield, Ill.) with a gradient of CH3CN in H2O from 0% to 85% (10 minutes at 1 mL/minute), then to 100% CH3CN over 40 minutes.

[2] = format: binding, Saccharomyces cerevisiae
From the text: CO-sensor of the 19 full-length cytochrome P450 clones from Taxus, thus far obtained, ten have yielded detectable CO-difference spectra (Table 2). […] These alternative expression systems for cytochrome P450 genes include the yeast Pichia pastoris, for which expression vectors and hosts are commercially available (Invitrogen, Carlsbad, Calif.), as well as established E. coli and baculovirus-insect cell systems for which general expression procedures have been described (Barnes, Methods Enzymol. 272:1–14, 1996;Gonzalez et al., Methods Enzymol. 206:93–99, 1991;Lee et al., Methods Enzymol. 272:86–98, 1996;and Lupien et al., Arch. Biochem. Biophys. 368:181–192, 1999).
Appropriate restriction sites were introduced by standard PCR methods (Innis et al., PCR Protocols: A Guide to Methods and Applications, Academic Press, San Diego, Calif., 1990) immediately upstream of the ATG start codon and downstream of the stop codon of all full-length cytochrome P450 clones. These modified amplicons were gel-purified, digested with the corresponding restriction enzymes, and then ligated into the expression vector pYeDP60. The vector/insert junctions were sequenced to ensure that no errors had been introduced by the PCR construction. Verified clones were transformed into yeast using the lithium acetate method (Ito et al., J. Bacteriol. 153:163–168, 1983). Isolated transformants were grown to stationary phase in SGI medium (Pompon et al., Methods Enzymol. 272:51–64, 1996), and used as inocula for a large-scale expression culture grown in YPL medium (Pompon et al., Methods Enzymol. 272:51–64, 1996). Approximately 24 hours after induction of cytochrome P450 expression with galactose (to 10% final concentration), a portion of the yeast cell culture was harvested by centrifugation. One-half of the culture was treated with carbon monoxide, and the cytochrome P450 CO-difference spectrum was recorded directly (using untreated cells as a control) by spectrophotometry (Omura and Sato, J. Biol. Chem. 239:2370–2378, 1964).

[3] = In vivo assay of yeast cells expressing recombinant oxygenases, radio-HPLC, substrate taxadiene; format: cell-based, Saccharomyces cerevisiae; conditions: assayed with Taxadiene; graded symbols, key not given
From the text: (§4) Transformed yeast cells that fimctionally express a recombinant cytochrome P450 gene from Taxus (by CO-difference spectrum) can be tested in vivo for their ability to oxygenate (hydroxylate or epoxidize) taxoid substrates fed exogenously to the cells, thereby eliminating the need for microsome isolation for preliminary in vitro assays.
(§5) Accordingly, several clones of the available full-length clones were expressed in induced yeast host cells.
as §2, §3

[4] = In vivo screening of functionally expressed clones in yeast with taxoid substrates (general statements); format: cell-based, Saccharomyces cerevisiae
From the text: as §4, §5, §1
as §2, with “medium. […]” for “medium.”

[5] = In vivo assay of yeast cells expressing recombinant oxygenases, radio-HPLC, substrate taxadien-5α-ol; format: cell-based, Saccharomyces cerevisiae; conditions: for product identified HPLC peak: assayed with Taxadien5αol, graded symbols, key not given
From the text: as §4, §5, §2, §3

[6] = yeast transformants, radio-HPLC and GC-MS

Molecule	product identified HPLC peak [1]	CO diff. spec. [2]	product identified HPLC peak [3]	enzyme function assigned from screening ([4]; taxadienol and taxadienyl acetate as test substrates)	product formed from taxadien-5α-yl acetate [1, 6]	product formed from taxadien-5α-ol [5, 6]	product identified HPLC peak [5]	oxygenation of taxoid substrates ([4]; in vivo)	CO-difference spectrum [2]
clone F21: Taxus cuspidata cytochrome P450 oxygenase, full-length clone, SEQ ID NO: 44 (nt) / 57 (aa) (protein, listed as Taxus cuspidata) MLIEMDTFVQLESSPVLLSLTLTLILLFIFCSKQYRSSLKLPPGNMGFPLIGETIALASQTPDKFFGDRMKKFGKVFKTSLIGHPTIVLCGSSGNRFLLSNEEKLVRMFPPNSSSKLLGQDSVLGKIGEEHRIVRTALARCLGPQALQNYVSKMSSEIQRHINQKWKGKGEVKMLPLIRSLVFSIATSLFFGITDEQQQERLHHLLETVVTGLLCIPLDFPGTTFRKALHARSKLDEIMSSVIERRRNDLRLGAASSDQDLLSVLLTFKDERGNPFADKEILDNFSFLLHALYDTTISPLTLVFKLVSSNPECYENIAQEQLEILRNKKDGEDISWADLKDMKYTWQAVQETLRMCPPVYGNFRKALTDIHYDGYTIPKGWRILCSPYTTHSKEEYFDDPEKFRPSRFEEQGRDVAPYTFIPFGGGLRICPGREFAKMEILVFMHHFVKAFSSFIPVDPNEKISTDPLPSIPVNGFSINLVPRS	No	+	No	–	–	–	–	–	–
clone F14: Taxus cuspidata cytochrome P450 taxane 10β-hydroxylase, full-length clone, SEQ ID NO: 51 (nt) / 64 (aa) (protein, listed as Taxus cuspidata) MDSFIFLRSIGTKFGQLESSPAILSLTLAPILAIILLLLFRYNHRSSVKLPPGKLGFPLIGETIQLLRTLRSETPQKFFDDRLKKFGPVYMTSLIGHPTVVLCGPAGNKLVLSNEDKLVEMEGPKSFMKLIGEDSIVAKRGEDHRILRTALARFLGAQALQNYLGRMSSEIGHHFNEKWKGKDEVKVLPLVRGLIFSIASTLFFDVNDGHQQKQLHHLLETILVGSLSVPLDFPGTRYRKGLQARLKLDEILSSLIKRRRRDLRSGIASDDQDLLSVLLTFRDEKGNSLTDQGILDNFSAMFHASYDTTVAPMALIFKLLYSNPEYHEKVFQEQLEIIGNKKEGEEISWKDLKSMKYTWQAVQESLRMYPPVFGIFRKAITDIHYDGYTIPKGWRVLCSPYTTHLREEYFPEPEEFRPSRFEDEGRHVTPYTYVPFGGGLRTCPGWEFSKIEILLFVHHFVKNFSSYIPVDPNEKVLSDPLPPLPANGFSIKLFPRS	–	+++	No	cytochrome P450 taxane-10β-hydroxylase	taxadien-diol monoacetate	diol products	–	–	–
clone F31: Taxus cuspidata cytochrome P450 oxygenase, full-length clone, SEQ ID NO: 46 (nt) / 59 (aa) (protein, listed as Taxus cuspidata) MDALSLVNSTVAKFNEVTQLQASPAILSTALTAIAGIIVLLVITSKRRSSLKLPPGKLGLPFIGETLEFVKALRSDTLRQFVEEREGKFGRVFKTSLLGKPTVILCGPAGNRLVLSNEEKLLHVSWSAQIARILGLNSVAVKRGDDHRVLRVALAGFLGSAGLQLYIGKMSALIRNHINEKWKGKDEVNVLSLVRDLVMDNSAILFFNIYDKERKQQLHEILKIILASHFGIPLNIPGFLYRKALKGSLKRKKILSALLEKRKDELRSRLASSNQDLLSVLLSFRDERGKPLSDEAVLDNCFAMLDASYDTTTSQMTLILKMLSSNPECFEKVVQEQLEIASNKKEGEEITMKDIKAMKYTWQVLQESLRMLSPVFGTLRKTMNDINHDGYTIPKGWQVVWTTYSTHQKDIYFKQPDKFMPSRFEEEDGHLDAYTFVPFGGGRRTCPGWEYAKVEILLFLHHFVKAFSGYTPTDPHERICGYPVPLVPVKGFPIKLIARS	No	+	No	–	–	–	No	–	–
clone F34: Taxus cuspidata cytochrome P450, outlying full-length clone, SEQ ID NO: 53 (nt) / 66 (aa) (protein, listed as Taxus cuspidata, X: residue not identified in the source; ends and bridges not checked) MAYPELLENLSGDRAQSPAIAAVLTILFLLGIFYILRGLRNNGRRLPPGPIPWPIVGNLHQLGKLPNRNLEELAKKHGPIMLMKLGSVPAVIVSSSAMAKEVLKTHDLVFASRPESAAGKYIAYNYKDIVFSPYGPYWRQMKKICVVELLNARRIESLRSVREEEVSVIIRSVWEKSKQGAVAVNLSKTLSSLTQGLMLQIFSSNDDGGNSSVTAIKEMMSEVSETAGAFNIGDYFPWMDWMDLQGIQRRMTKAHDYFDQVITKIIEQHQRTRAMEDTQQPKDIIDALLQMENTDGVTITMENIKAVVLGIFLGGAETTSTTLEWAMSAMLENPEVAKKVQEEIESVVGRKRVVKEMIWESMEYLQCVVKKTMRLYPAVPLLIPHESTQDCTVNGYFIPERTRILVNAWAIGKDPNVWDDALAFKPKRFLGXNVDLQKGKEFFDMVPFGAGRKGCPGASMAVVTMEHALAQLMHCFQWRIEGELDMSERLAASVQKKVDLCVLPQWRLTSSP	–	++	No	–	–	–	No	does not transform the taxoid substrates to oxygenated products	reliable CO-difference spectrum

From US7005283B2, “Cytochrome P450 oxygenases and their uses” (Washington State University Research Foundation, priority 1999, dated 2006)
